The values below come from article PMC12322040 (Nature Communications, 2025).

Assay [1] addresses T1, GST-GCK WT (human, UniProt P35557 1-465).
T1 sequence (looked up): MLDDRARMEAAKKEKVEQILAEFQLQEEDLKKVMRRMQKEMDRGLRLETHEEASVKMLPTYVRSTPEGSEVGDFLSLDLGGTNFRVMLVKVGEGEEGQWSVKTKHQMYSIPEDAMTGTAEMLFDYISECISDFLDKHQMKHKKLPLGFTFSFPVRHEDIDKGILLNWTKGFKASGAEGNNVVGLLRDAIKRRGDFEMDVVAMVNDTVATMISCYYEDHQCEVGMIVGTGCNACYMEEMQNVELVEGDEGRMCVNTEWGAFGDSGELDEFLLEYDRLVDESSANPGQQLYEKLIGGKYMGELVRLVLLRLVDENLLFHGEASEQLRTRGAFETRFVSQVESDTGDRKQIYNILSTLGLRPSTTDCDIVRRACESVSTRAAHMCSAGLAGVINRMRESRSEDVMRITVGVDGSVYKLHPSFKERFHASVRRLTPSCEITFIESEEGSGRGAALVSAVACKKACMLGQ
The assay is described as follows: pull-down.

Assay [2] addresses T2, His-GCK WT (human, UniProt P35557 1-465).
T2 sequence (looked up): T1 sequence (looked up)
The assay can be described thus: pull-down.

B1: His-CK2α (enzyme, human, UniProt P68400 1-391, looked up)
chain: MSGPVPSRARVYTDVNTHRPREYWDYESHVVEWGNQDDYQLVRKLGRGKYSEVFEAINITNNEKVVVKILKPVKKKKIKREIKILENLRGGPNIITLADIVKDPVSRTPALVFEHVNNTDFKQLYQTLTDYDIRFYMYEILKALDYCHSMGIMHRDVKPHNVMIDHEHRKLRLIDWGLAEFYHPGQEYNVRVASRYFKGPELLVDYQMYDYSLDMWSLGCMLASMIFRKEPFFHGHDNYDQLVRIAKVLGTEDLYDYIDKYNIELDPRFNDILGRHSRKRWERFVHSENQHLVSPEALDFLDKLLRYDHQSRLTAREAMEHPYFYTVVKDQARMGSSSMPGGSTPVSSANMMSGISSVPTPSPLGPLAGSPVIAAANPLGMPVPAAAGAQQ
B1: in assay [1], the binding result was “binds”.

B2: GST-CK2α WT phosphorylated by active His-ERK2 (enzyme, human, UniProt P68400 1-391, looked up)
chain: B1 chain
modifications: phosphothreonine at 360, phosphoserine at 362 (ERK-mediated)
Consider B2, for which the binding result in assay [2] was “binds”.
